From publication PMC8771830, “Multimerization of the GATA4 transcription factor regulates transcriptional activity and cardiomyocyte hypertrophic response” (International Journal of Biological Sciences, 2022)

Target: the molecule itself
Assay: SEC; purified GATA4 on Superdex200 Increase 10/300 GL in 20 mM HEPES-NaOH pH 7.4, 100 mM NaCl; fractions blotted with anti-GATA4

B1: Full length GATA4 produced by E. coli (natural protein)
chain: not shown
notes: GATA4, full length; also called purified GATA4; recombinant GATA4; source: E. coli BL21 DE3, purified (Glutathione-Sepharose 4B, GST removed with HRV3C protease)
For B1, the “stoichiometry N” value was about 8.
